Data reported in patent US20260070986A1 (AFFIMED, published 2026).

Key:
[1] = target: T1, CD123 on CD123+ cells (EOL-1 and other CD123+ tumour or patient cells) (human, UniProt P26951 19-378); assay: flow cytometry on CD123+ EOL-1 cells, anti-human IgG-APC detection
T1 construct: whole, on cells; also called interleukin-3 receptor
Description: To analyze binding of CD123xCD16A antibody constructs to CD123+ EOL-1 cells, CD123− A-431 cells and CD123− Karpas-299 cells by flow cytometry, 1×10⁵ cells were resuspended in 100 μL FACS buffer in round-bottom 96-well microtiter plates. After washing in FACS buffer, cells were incubated in 100 μL FACS buffer without antibodies or with titrated antibodies starting at a concentration of 100 μg/mL followed by eight 10-fold serial dilutions for 45 min on ice in the dark. After washing twice, cells were incubated with APC-conjugated goat anti-human IgG (H+L)-APC (1/200 dilution) for 30 min on ice in the dark. After washing, binding was measured by flow cytometry and mean fluorescence intensities (MFI) of cell samples were calculated and corrected for background staining using control cells stained with secondary antibodies only.

[2] = target: T2, recombinant murine FcγRI (CD64), biotinylated (murine, UniProt P26151 25-297, limits assumed, site-directed biotinylation at AviTag); assay: SPR (Biacore), 37 °C, biotin-captured murine CD64 as ligand, steady-state plot; left-hand column, no heading on the sheet
T2 construct: also called murine CD64; mouse CD64
T2 sequence (looked up): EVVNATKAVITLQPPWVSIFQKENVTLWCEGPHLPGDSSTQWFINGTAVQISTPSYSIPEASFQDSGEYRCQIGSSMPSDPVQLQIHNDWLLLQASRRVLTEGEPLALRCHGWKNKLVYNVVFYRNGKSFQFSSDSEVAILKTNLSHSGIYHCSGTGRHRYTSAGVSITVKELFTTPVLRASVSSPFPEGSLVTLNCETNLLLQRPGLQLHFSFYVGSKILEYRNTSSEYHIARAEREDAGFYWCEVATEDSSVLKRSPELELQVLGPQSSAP
Description: FIG. 20: SPR interaction analysis of antibody binding to CD64 and murine CD16-2. […] Affinity parameters were evaluated for interaction with receptors using a Steady State Binding model.

T1 sequence (P26951 19-378): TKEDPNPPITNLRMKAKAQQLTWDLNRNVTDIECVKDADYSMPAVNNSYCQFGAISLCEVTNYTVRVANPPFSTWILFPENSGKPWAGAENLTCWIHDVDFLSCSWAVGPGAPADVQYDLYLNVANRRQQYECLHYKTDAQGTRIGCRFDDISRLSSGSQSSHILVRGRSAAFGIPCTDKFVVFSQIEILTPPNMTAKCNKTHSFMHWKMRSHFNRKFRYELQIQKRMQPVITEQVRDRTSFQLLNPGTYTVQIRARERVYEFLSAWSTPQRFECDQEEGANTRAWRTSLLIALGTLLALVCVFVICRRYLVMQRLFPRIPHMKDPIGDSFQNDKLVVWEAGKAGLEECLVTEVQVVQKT

EC50 (read off the curve) [1]: ~0.4 nM
B1: scFv-IgAb_268 (CD123-1xCD16a1) (bispecific antibody)
heavy: QVQLQQSGAEVKKPGASVKVSCKASGYTFTDYYMKWVKQSHGKSLEWMGDIIPSNGATFYNQKFKGKATLTVDRSTSTAYMELSSLRSEDTAVYYCARSHLLRASWFAYWGQGTLVTVSSASTKGPSVFPLAPSSKSTSGGTAALGCLVKDYFPEPVTVSWNSGALTSGVHTFPAVLQSSGLYSLSSVVTVPSSSLGTQTYICNVNHKPSNTKVDKKVEPKSCDKTHTCPPCPAPEFEGGPSVFLFPPKPKDTLMISRTPEVTCVVVAVSHEDPEVKFNWYVDGVEVHNAKTKPREEQYNSTYRVVSVLTVLHQDWLNGKEYKCKVSNKALPAPIEKTISKAKGQPREPQVYTLPPSREEMTKNQVSLTCLVKGFYPSDIAVEWESNGQPENNYKTTPPVLDSDGSFFLYSKLTVDKSRWQQGNVFSCSVMHEALHNHYTQKSLSLSPGGGGGSGGGGSGGGGSGGGGSGGGGSGGGGSSYELTQPLSVSVALGQTARITCGGNNIGSKSVHWYQQKPGQAPVLVIYQDKKRPSGIPERFSGSNSGNTATLTISRAQAGDEADYYCQVWDDYIVLFGCGTKLTVLGGSGGSGGSGGSGGSGGSGGSQVQLVQSGAEVKKPGASVKVSCKASGYTFTNYYMQWVRQAPGQCLEWMGIINPSGGVTSYAQKFQGRVTMTRDTSTSTVYMELSSLRSEDTAVYYCARGSAYYYDFADYWGQGTLVTVSS
light: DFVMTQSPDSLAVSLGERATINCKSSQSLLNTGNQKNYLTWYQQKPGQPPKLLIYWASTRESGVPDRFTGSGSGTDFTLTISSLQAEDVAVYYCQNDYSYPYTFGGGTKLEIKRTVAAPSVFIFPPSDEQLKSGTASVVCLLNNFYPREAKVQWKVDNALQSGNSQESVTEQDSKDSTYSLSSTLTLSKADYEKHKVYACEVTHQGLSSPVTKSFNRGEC
notes: also called AFM28; CD123xCD16A scFv-IgAb_268
binding result [2]: no binding (tested: 2e-6 M (last point visible))
